Measured values published in publication PMC6601550.

Tests used:
[1] = target: human neonatal Fc receptor (FcRn heavy chain FCGRT with B2M) on MDCK-hFcRn cells (human) (UniProt P55899); test: flow cytometry on cells
[2] = target: FcRn (neonatal Fc receptor) immobilised in the FcRn binding affinity measurement (UniProt P55899); test: BLI

Substance	MFI (binding to MDCK-hFcRn cells) [1]	Kd [2]	MFI (cell binding to MDCK-hFcRn cells) [1]
Adalimumab (antibody)	183 MFI	1180 nM	–
Basiliximab (antibody)	203 MFI	–	–
Emicizumab (bispecific antibody)	–	1230 nM	–
Infliximab (antibody)	128 MFI	–	–
Ocrelizumab (antibody)	101 MFI	–	–
Rituximab (antibody)	–	460 nM	–
anti-herpes simplex virus glycoprotein D (gD)-YTE antibody	–	–	1150 MFI
